B1: Proto-oncogene vav (Mus musculus), P27870 (parent)
chain: MELWRQCTHWLIQCRVLPPSHRVTWEGAQVCELAQALRDGVLLCQLLNNLLPQAINLREVNLRPQMSQFLCLKNIRTFLSTCCEKFGLKRSELFEAFDLFDVQDFGKVIYTLSALSWTPIAQNKGIMPFPTEDSALNDEDIYSGLSDQIDDTAEEDEDLYDCVENEEAEGDEIYEDLMRLESVPTPPKMTEYDKRCCCLREIQQTEEKYTDTLGSIQQHFMKPLQRFLKPQDMETIFVNIEELFSVHTHFLKELKDALAGPGATTLYQVFIKYKERFLVYGRYCSQVESASKHLDQVATAREDVQMKLEECSQRANNGRFTLRDLLMVPMQRVLKYHLLLQELVKHTQDATEKENLRLALDAMRDLAQCVNEVKRDNETLRQITNFQLSIENLDQSLANYGRPKIDGELKITSVERRSKTDRYAFLLDKALLICKRRGDSYDLKASVNLHSFQVRDDSSGERDNKKWSHMFLLIEDQGAQGYELFFKTRELKKKWMEQFEMAISNIYPENATANGHDFQMFSFEETTSCKACQMLLRGTFYQGYRCYRCRAPAHKECLGRVPPCGRHGQDFAGTMKKDKLHRRAQDKKRNELGLPKMEVFQEYYGIPPPPGAFGPFLRLNPGDIVELTKAEAEHNWWEGRNTATNEVGWFPCNRVHPYVHGPPQDLSVHLWYAGPMERAGAEGILTNRSDGTYLVRQRVKDTAEFAISIKYNVEVKHIKIMTSEGLYRITEKKAFRGLLELVEFYQQNSLKDCFKSLDTTLQFPYKEPERRAISKPPAGSTKYFGTAKARYDFCARDRSELSLKEGDIIKILNKKGQQGWWRGEIYGRIGWFPSNYVEEDYSEYC

The variants in the test derive from B1. As to conditions: with RAC1, P63000-1.
As to Y174F, the “effect of a mutation on the interaction” value is given as “increasing interaction”.

As for K208A, the “effect of a mutation on the interaction” value is reported as “increasing interaction”.
